What was measured:
TNFR1-Fc = TNFR1-Fc (UniProt P25118); assay: BLI
TNFR2-Fc = TNFR2-Fc (UniProt P25119); assay: BLI
Sequence of UniProt P25119 (P25119 23-258): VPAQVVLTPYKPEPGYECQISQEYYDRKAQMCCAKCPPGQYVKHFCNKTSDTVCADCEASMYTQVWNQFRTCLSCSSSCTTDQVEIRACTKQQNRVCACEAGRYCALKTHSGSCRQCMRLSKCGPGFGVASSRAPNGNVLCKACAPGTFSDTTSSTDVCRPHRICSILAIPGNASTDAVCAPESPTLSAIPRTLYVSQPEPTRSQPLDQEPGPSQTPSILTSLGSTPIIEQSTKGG

Sequence of UniProt P25118 (P25118 30-212): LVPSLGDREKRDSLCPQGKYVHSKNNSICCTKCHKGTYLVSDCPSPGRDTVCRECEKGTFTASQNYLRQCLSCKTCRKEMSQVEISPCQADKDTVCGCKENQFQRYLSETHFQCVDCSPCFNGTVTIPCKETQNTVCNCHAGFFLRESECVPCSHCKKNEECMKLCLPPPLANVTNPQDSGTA

Substance	Kd (TNFR1-Fc) [nM]	Kd (TNFR2-Fc) [nM]
native murine TNFα with leucine at the start (TNFα-L) (ligand)	0.309	2.1
mutated NGR-TNFα with valine at the start of TNFα (NGR-TNFα-V)	0.526	2.45
mutated murine TNFα with valine at the start (TNFα-V) (ligand)	0.326	1.86
native NGR-TNFα with leucine at the start of TNFα (NGR-TNFα-L)	0.741	4.63

From PMC7852052
